Reference: US20170014494

System: flag-tagged SUMO1
Sequence (chain, as listed by the source): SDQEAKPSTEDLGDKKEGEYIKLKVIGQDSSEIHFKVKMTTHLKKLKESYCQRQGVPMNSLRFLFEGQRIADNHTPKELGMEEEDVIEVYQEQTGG

SERCA2a wild type (WT), expressed from a plasmid in HEK293 cells
Vmax of Ca2+-dependent ATPase activity of WT SERCA2a with co-expression of SUMO1: 98.58 ± 1.83 nmol/min/mg
